Measurements: patent publication US10562947B2, “Compositions and methods for preventing or treating diseases, conditions or processes characterized by aberrant fibroblast proliferation and extracellular matrix deposition” (MOERAE MATRIX, INC., priority 2011, dated 2020)

How the values were obtained:
Assay in all cases: Kinase Profiling Assay
Type in all cases: biochemical
Settings in all cases: 100 μM peptide
CDK5/p35(h) = CDK5/p35(h) (Homo sapiens, UniProt Q00535)
Method in brief: (§1)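 MK2 inhibitory peptides were screened for specificity across a commercial panel of 266 human kinases, and each kinase activity measurement was run in duplicate.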

ALK(h) = ALK(h) (Homo sapiens, UniProt Q9UM73)
Sequence of ALK(h) (Q9UM73 19-1620): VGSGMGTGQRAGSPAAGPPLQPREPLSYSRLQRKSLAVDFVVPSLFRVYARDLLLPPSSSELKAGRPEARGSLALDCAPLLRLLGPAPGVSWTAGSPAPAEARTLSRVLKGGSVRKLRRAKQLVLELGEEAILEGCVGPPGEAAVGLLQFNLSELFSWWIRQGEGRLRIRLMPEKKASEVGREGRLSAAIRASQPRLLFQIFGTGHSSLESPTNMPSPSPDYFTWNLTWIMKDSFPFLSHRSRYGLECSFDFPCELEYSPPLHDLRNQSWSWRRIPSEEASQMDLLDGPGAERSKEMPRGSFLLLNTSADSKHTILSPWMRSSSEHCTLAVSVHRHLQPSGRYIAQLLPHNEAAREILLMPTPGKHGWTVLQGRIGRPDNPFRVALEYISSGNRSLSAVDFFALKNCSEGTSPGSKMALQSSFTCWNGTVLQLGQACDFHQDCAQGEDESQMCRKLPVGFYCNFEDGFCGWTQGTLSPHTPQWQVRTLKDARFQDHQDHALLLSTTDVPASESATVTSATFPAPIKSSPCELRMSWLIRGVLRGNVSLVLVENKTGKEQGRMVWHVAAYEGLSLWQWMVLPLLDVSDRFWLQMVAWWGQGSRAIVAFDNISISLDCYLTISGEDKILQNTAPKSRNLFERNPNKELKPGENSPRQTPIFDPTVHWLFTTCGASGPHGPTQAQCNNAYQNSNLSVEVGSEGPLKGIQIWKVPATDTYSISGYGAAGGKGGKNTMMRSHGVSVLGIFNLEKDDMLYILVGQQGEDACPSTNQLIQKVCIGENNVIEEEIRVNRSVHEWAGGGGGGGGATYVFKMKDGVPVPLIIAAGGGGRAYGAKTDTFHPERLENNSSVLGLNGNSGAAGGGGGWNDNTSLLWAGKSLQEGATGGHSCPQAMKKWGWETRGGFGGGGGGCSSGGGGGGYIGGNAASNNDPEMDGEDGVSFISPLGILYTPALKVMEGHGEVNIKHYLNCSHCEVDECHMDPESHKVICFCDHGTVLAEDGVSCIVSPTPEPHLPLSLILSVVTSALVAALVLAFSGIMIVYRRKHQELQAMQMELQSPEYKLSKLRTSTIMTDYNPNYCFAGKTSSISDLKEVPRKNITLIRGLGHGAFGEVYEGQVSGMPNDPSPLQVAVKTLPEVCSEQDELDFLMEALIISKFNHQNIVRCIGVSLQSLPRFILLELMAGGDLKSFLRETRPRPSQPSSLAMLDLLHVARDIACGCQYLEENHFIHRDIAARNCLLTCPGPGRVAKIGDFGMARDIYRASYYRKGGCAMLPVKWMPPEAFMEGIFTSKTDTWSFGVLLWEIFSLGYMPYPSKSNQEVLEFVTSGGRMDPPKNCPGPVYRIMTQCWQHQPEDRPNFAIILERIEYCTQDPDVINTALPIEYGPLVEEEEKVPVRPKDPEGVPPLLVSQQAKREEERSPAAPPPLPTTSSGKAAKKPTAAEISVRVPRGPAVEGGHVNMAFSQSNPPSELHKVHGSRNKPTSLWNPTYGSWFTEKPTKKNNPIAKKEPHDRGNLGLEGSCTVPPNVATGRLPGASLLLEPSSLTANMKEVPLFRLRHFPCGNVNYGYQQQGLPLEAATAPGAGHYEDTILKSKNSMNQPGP
Method in brief: as §1

EphA5(h) = EphA5(h) (Homo sapiens, UniProt P54756)
Sequence of EphA5(h) (P54756 25-1037): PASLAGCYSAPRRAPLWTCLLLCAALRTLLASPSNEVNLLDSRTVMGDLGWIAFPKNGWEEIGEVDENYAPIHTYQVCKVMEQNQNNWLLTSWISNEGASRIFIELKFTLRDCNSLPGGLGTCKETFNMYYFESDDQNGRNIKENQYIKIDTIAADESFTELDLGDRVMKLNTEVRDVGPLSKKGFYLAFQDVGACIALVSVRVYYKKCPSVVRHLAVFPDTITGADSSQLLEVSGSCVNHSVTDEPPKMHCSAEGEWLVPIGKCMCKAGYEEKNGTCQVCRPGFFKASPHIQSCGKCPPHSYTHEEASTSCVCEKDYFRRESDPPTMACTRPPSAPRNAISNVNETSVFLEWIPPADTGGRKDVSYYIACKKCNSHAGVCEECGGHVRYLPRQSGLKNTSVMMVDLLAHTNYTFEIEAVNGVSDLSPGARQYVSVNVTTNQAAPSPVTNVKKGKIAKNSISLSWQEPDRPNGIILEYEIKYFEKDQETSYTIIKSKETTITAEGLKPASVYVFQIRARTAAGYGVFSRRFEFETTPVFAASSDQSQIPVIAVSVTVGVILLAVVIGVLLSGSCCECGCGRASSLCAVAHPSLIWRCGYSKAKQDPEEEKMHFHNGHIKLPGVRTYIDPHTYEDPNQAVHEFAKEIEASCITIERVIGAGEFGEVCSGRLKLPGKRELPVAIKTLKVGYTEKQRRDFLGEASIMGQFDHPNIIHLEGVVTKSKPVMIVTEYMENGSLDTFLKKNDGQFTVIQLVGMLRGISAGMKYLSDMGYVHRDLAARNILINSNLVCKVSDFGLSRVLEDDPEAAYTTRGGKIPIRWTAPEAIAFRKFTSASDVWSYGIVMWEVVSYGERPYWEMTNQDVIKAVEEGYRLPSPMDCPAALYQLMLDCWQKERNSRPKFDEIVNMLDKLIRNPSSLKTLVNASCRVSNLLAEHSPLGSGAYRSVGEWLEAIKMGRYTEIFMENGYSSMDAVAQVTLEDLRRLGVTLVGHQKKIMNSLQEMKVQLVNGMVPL
Method in brief: as §1

PKCγ(h) = PKCγ(h) (Homo sapiens, UniProt P05129)
Method in brief: as §1

BRK(h) = BRK(h) (Homo sapiens, UniProt Q13882)
Sequence of BRK(h) (Q13882 whole entry): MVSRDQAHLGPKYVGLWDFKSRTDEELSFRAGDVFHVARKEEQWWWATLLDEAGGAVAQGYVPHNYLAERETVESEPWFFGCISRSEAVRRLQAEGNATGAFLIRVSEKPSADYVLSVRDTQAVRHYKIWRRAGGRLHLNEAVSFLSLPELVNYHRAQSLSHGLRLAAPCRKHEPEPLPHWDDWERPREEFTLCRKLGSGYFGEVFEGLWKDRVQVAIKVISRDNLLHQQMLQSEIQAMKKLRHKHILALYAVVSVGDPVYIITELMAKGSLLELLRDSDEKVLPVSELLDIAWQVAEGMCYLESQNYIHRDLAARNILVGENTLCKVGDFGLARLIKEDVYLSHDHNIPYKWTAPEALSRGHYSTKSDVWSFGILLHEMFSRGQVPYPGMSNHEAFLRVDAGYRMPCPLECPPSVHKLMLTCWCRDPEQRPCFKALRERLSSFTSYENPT
Method in brief: as §1

MLK1(h) = MLK1(h) (Homo sapiens, UniProt P80192)
Method in brief: as §1

Met(Y1248H)(h) = Met(Y1248H)(h) (Homo sapiens, UniProt P08581, Y1230H)
Method in brief: as §1

IR(h), activated = target: T1, IR(h), activated (Homo sapiens, UniProt P06213)
T1 construct: purchased Millipore
T1 sequence (P06213 1005-1310 limits assumed): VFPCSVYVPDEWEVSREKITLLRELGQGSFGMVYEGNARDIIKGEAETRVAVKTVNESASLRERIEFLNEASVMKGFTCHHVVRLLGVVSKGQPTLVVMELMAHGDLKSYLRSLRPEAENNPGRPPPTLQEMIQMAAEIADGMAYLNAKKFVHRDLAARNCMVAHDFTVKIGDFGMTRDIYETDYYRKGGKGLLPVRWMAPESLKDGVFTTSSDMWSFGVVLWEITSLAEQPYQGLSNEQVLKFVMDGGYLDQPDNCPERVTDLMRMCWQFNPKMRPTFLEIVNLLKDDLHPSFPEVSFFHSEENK
Method in brief: as §1

PKCζ(h) = target: T2, PKCζ(h) (Homo sapiens, UniProt Q05513)
T2 construct: purchased Millipore (IC50 Profiler Express service)
T2 sequence (Q05513 1-592): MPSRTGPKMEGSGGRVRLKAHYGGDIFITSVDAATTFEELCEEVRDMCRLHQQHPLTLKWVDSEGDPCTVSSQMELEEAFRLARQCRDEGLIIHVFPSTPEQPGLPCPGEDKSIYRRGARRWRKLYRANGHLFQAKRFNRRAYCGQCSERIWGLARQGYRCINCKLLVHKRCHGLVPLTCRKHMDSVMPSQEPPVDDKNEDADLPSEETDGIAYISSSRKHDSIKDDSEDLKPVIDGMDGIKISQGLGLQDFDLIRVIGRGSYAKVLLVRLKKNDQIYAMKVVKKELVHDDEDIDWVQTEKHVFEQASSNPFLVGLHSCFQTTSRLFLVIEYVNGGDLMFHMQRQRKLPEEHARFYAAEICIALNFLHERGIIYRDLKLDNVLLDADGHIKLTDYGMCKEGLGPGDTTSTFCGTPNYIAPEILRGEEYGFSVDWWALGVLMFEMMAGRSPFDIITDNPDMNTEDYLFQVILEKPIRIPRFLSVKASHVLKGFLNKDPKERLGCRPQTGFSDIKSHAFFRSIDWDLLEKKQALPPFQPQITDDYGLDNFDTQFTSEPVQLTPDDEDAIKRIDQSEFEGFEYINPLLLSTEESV
Method in brief: as §1

SGK(h) = target: T3, SGK(h) (Homo sapiens, UniProt O00141)
T3 sequence (O00141 1-431): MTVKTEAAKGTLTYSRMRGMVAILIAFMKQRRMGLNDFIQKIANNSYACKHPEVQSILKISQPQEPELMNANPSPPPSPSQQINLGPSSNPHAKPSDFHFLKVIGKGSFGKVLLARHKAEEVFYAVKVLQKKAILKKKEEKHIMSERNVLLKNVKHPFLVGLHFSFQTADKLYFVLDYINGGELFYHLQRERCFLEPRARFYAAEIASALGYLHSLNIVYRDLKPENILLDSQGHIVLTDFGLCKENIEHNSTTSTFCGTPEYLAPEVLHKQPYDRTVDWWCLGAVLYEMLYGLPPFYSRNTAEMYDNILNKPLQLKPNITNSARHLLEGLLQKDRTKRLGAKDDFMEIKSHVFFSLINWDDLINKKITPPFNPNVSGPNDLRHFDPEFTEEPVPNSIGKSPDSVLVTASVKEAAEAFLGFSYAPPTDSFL
Method in brief: as §1

PrKX(h) = target: T4, PrKX(h) (Homo sapiens, UniProt P51817)
T4 construct: purchased Millipore (IC50 Profiler Express service)
T4 sequence (P51817 1-358): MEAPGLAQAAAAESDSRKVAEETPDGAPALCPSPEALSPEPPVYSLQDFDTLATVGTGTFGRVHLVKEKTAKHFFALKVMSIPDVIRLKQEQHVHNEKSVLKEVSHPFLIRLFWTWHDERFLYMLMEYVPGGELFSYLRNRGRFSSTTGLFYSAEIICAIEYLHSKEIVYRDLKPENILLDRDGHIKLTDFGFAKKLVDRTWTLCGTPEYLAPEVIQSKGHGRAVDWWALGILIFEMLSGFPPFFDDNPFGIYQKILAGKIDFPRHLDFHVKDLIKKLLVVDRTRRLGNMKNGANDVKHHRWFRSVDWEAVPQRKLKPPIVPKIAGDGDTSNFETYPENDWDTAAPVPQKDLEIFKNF
Method in brief: as §1

CHK2(I157T)(h) = CHK2(I157T)(h) (Homo sapiens, UniProt O96017, I157T)
Method in brief: as §1

Pyk2(h) = target: T5, Pyk2(h) (Homo sapiens, UniProt Q14289)
T5 construct: purchased Millipore (IC50 Profiler Express service)
T5 sequence (Q14289 whole entry): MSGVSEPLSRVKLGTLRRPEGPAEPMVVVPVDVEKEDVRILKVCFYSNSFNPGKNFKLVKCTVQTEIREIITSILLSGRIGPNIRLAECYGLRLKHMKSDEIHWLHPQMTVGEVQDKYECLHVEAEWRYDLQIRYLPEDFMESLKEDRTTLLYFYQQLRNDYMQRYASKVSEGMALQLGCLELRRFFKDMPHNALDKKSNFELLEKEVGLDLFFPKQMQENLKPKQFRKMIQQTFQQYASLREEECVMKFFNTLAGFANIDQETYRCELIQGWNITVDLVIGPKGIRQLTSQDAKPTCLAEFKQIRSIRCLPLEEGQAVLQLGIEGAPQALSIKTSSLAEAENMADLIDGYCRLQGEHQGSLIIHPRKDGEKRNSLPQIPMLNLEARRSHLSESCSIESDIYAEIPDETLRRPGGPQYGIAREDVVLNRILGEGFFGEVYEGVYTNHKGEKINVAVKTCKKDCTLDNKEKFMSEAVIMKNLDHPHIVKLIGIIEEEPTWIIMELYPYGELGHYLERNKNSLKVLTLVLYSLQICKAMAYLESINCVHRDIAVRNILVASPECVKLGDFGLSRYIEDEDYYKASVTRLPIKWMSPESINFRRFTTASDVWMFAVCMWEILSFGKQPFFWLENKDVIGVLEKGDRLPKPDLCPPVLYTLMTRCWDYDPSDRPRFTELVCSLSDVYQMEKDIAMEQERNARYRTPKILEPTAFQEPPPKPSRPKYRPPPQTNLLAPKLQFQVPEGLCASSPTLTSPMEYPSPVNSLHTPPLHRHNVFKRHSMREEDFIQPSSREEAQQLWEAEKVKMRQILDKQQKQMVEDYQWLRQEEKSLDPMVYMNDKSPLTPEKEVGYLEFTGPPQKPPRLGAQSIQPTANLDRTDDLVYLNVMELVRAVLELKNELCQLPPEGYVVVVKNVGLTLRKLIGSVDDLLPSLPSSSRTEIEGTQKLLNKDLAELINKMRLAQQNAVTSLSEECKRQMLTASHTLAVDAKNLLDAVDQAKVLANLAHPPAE
Method in brief: as §1

ROCK-II(h) = target: T6, ROCK-II(h) (Homo sapiens, UniProt O75116)
T6 construct: purchased Millipore (IC50 Profiler Express service)
Method in brief: as §1

PKCδ(h) = PKCδ(h) (Homo sapiens, UniProt Q05655)
Sequence of PKCδ(h) (Q05655 whole entry): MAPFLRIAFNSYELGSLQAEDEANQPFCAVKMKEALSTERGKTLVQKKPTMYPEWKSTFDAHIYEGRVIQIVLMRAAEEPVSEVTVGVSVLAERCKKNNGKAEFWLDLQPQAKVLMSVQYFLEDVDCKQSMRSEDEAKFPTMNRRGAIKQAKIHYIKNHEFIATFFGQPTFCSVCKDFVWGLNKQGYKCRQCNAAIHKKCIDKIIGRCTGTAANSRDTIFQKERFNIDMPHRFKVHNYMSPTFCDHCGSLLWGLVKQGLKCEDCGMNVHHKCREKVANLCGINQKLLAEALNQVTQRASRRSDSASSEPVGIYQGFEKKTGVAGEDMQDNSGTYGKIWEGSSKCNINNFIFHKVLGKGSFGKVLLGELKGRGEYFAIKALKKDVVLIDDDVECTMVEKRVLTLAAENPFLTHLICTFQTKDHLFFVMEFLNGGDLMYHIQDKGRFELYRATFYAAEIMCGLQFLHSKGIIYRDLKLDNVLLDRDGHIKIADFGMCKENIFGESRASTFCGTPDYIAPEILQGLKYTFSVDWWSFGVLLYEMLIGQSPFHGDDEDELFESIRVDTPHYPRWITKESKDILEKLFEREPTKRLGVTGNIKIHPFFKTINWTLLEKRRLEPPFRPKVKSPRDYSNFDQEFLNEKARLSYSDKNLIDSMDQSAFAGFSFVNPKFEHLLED
Method in brief: as §1

Plk3(h) = target: T7, Plk3(h) (Homo sapiens, UniProt Q9H4B4)
T7 construct: purchased Millipore (IC50 Profiler Express service)
Method in brief: as §1

Sequence	CDK5/p35(h) % activity (CDK5/p35(h)) [%]	ALK(h) % activity (ALK(h)) [%]	EphA5(h) % activity (EphA5(h)) [%]	PKCγ(h) % activity (PKCγ(h)) [%]	BRK(h) % activity (BRK(h)) [%]	MLK1(h) % activity (MLK1(h)) [%]	Met(Y1248H)(h) % activity (Met(Y1248H)(h)) [%]	IR(h), activated % activity (IR(h), activated) [%]	PKCζ(h) % activity (PKCζ(h)) [%]	SGK(h) % activity (SGK(h)) [%]	PrKX(h) % activity (PrKX(h)) [%]	CHK2(I157T)(h) % activity (CHK2(I157T)(h)) [%]	Pyk2(h) % activity (Pyk2(h)) [%]	ROCK-II(h) % activity (ROCK-II(h)) [%]	PKCδ(h) % activity (PKCδ(h)) [%]	Plk3(h) % activity (Plk3(h)) [%]
HRRIKAWLKKIKALARQLGVAA (Mammalian) [MMI-0500]	59	12	42	6	41	43	126	90	7	2	57	3	46	2	61	122
FAKLAARLYRKALARQLGVAA [MMI-0300]	79	19	18	89	35	40	–	79	81	48	61	43	47	74	101	127
YARAAARQARAKALNRQLGVA (Mammalian) [MMI-0200]	92	95	123	101	127	84	153	–	98	–	–	85	127	85	101	–
KAFAKLAARLYRKALARQLGVAA [MMI-0400]	76	16	24	79	18	33	63	59	75	54	76	41	34	77	90	129
